The labels stand for the following.
B1: Cyclin-dependent kinase 4 (Homo sapiens), P11802 (parent)
chain: MATSRYEPVAEIGVGAYGTVYKARDPHSGHFVALKSVRVPNGGGGGGGLPISTVREVALLRRLEAFEHPNVVRLMDVCATSRTDREIKVTLVFEHVDQDLRTYLDKAPPPGLPAETIKDLMRQFLRGLDFLHANCIVHRDLKPENILVTSGGTVKLADFGLARIYSYQMALTPVVVTLWYRAPEVLLQSTYATPVDMWSVGCIFAEMFRRKPLFCGNSEADQLGKIFDLIGLPPEDDWPRDVSLPRGAFPPRGPRPVQSVVPEMEESGAQLLLEMLTFNPHKRISAFRALQHSYLHKDEGNPE
B2: Atos homolog protein B (Homo sapiens), Q7L5A3 (parent)
chain: MRHVQAEPSPSSEPEAGPSQPPVRQGALQGGLLMGYSPAGGATSPGVYQVSIFSPPAGTSEPHRALKRQAPSTEGPRELKRGPGLGAREGLPPEEPSTVGLLGPEGPGLGLGVASQHFSHRGLCVVEQRSSVTSSWTSGAWSPPCPPSNASCNTLHTRDWASPDPGGQGSLGESPGPAPPGQLHTLDTDLHSLAQIGGKSPVAGVGNGGSLWPRESPGTANGHSPEHTPPGPGPPGPCPTKRRLLPAGEAPDVSSEEEGPAPRRRRGSLGHPTAANSSDAKATPFWSHLLPGPKEPVLDPTDCGPMGRRLKGARRLKLSPLRSLRKGPGLLSPPSASPVPTPAVSRTLLGNFEESLLRGRFAPSGHIEGFTAEIGASGSYCPQHVTLPVTVTFFDVSEQNAPAPFLGIVDLNPLGRKGYSVPKVGTVQVTLFNPNQTVVKMFLVTFDFSDMPAAHMTFLRHRLFLVPVGEEGNANPTHRLLCYLLHLRFRSSRSGRLSLHGDIRLLFSRRSLELDTGLPYELQAVTEAPHNPRYSPLP
B3: Protein unc-45 homolog A (Homo sapiens), Q9H3U1 (parent)
chain: MTVSGPGTPEPRPATPGASSVEQLRKEGNELFKCGDYGGALAAYTQALGLDATPQDQAVLHRNRAACHLKLEDYDKAETEASKAIEKDGGDVKALYRRSQALEKLGRLDQAVLDLQRCVSLEPKNKVFQEALRNIGGQIQEKVRYMSSTDAKVEQMFQILLDPEEKGTEKKQKASQNLVVLAREDAGAEKIFRSNGVQLLQRLLDMGETDLMLAALRTLVGICSEHQSRTVATLSILGTRRVVSILGVESQAVSLAACHLLQVMFDALKEGVKKGFRGKEGAIIVDPARELKVLISNLLDLLTEVGVSGQGRDNALTLLIKAVPRKSLKDPNNSLTLWVIDQGLKKILEVGGSLQDPPGELAVTANSRMSASILLSKLFDDLKCDAERENFHRLCENYIKSWFEGQGLAGKLRAIQTVSCLLQGPCDAGNRALELSGVMESVIALCASEQEEEQLVAVEALIHAAGKAKRASFITANGVSLLKDLYKCSEKDSIRIRALVGLCKLGSAGGTDFSMKQFAEGSTLKLAKQCRKWLCNDQIDAGTRRWAVEGLAYLTFDADVKEEFVEDAAALKALFQLSRLEERSVLFAVASALVNCTNSYDYEEPDPKMVELAKYAKQHVPEQHPKDKPSFVRARVKKLLAAGVVSAMVCMVKTESPVLTSSCRELLSRVFLALVEEVEDRGTVVAQGGGRALIPLALEGTDVGQTKAAQALAKLTITSNPEMTFPGERIYEVVRPLVSLLHLNCSGLQNFEALMALTNLAGISERLRQKILKEKAVPMIEGYMFEEHEMIRRAATECMCNLAMSKEVQDLFEAQGNDRLKLLVLYSGEDDELLQRAAAGGLAMLTSMRPTLCSRIPQVTTHWLEILQALLLSSNQELQHRGAVVVLNMVEASREIASTLMESEMMEILSVLAKGDHSPVTRAAAACLDKAVEYGLIQPNQDGE

The first test covers variants of B1. Conditions: with ccnd1_human CCND1, P24385.
ccnd1_human CCND1, P24385, sequence (P24385 whole entry): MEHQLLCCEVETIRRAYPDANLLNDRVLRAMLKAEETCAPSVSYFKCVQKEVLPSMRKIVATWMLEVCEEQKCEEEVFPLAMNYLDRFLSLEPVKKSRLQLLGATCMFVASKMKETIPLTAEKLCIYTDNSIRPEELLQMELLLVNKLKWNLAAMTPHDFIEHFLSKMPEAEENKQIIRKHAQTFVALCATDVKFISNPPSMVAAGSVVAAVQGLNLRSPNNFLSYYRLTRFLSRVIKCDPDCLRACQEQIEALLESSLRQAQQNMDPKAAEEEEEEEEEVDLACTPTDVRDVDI
Turning to R255H, the “effect of a mutation on the interaction” value is given as “with no effect”.

On to R24H, for which the “effect of a mutation on the interaction” value is “with no effect”.

The variants in a further test derive from B1. The conditions noted are these: with ccnd3_human CCND3, P30281.
ccnd3_human CCND3, P30281, sequence (P30281 whole entry): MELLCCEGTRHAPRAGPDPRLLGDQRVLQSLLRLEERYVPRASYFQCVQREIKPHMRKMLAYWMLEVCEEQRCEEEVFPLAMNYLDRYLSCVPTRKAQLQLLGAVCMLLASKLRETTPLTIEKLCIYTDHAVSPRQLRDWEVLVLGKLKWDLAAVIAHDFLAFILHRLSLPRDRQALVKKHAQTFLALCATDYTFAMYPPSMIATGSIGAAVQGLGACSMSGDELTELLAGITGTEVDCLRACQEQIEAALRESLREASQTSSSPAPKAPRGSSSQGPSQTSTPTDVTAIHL
For R255H, the “effect of a mutation on the interaction” value is “with no effect”.

In the next test the parent is B1. The conditions noted are these: with cdn2c_human CDKN2C.
As to R255H, the “effect of a mutation on the interaction” value was “with no effect”.

Another test covers variants of B1. Conditions: with ccnd2_human CCND2, P30279.
ccnd2_human CCND2, P30279, sequence (P30279 whole entry): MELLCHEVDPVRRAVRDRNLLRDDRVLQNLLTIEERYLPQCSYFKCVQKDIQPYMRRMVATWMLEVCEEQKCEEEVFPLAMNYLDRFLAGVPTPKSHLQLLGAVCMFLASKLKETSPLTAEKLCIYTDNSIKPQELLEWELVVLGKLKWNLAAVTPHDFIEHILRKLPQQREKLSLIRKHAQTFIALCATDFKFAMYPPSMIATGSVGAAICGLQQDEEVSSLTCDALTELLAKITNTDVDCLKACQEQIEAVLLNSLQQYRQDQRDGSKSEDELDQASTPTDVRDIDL
As to R255H, the “effect of a mutation on the interaction” value is recorded as “with no effect”.

Variants of B1 are the subject of the next test. The conditions noted are these: with ccnd1_human CCND1, P24385. The source holds these as a separate data set.
Turning to R255C, the “effect of a mutation on the interaction” value is “with no effect”.

Consider K22R, for which the “effect of a mutation on the interaction” value is “with no effect”.

S267P: the “effect of a mutation on the interaction” value was “with no effect”.

Take V174G: the “effect of a mutation on the interaction” value is “with no effect”.

The variants in another test derive from B1. The conditions noted are these: with ccnd2_human CCND2, P30279. This is another data set of the same source.
Turning to R255C, the “effect of a mutation on the interaction” value was “with no effect”.

Turning to K22R, the “effect of a mutation on the interaction” value is reported as “with no effect”.

Consider S267P, for which the “effect of a mutation on the interaction” value is listed as “with no effect”.

As to V174G, the “effect of a mutation on the interaction” value is reported as “disrupting interaction strength”.

Variants of B1 are the subject of the next test. Conditions: with cdn2c_human CDKN2C. The source holds these as a separate data set.
On to R255C, for which the “effect of a mutation on the interaction” value is given as “with no effect”.

For K22R, the “effect of a mutation on the interaction” value is recorded as “with no effect”.

Turning to S267P, the “effect of a mutation on the interaction” value is “with no effect”.

With V174G, the “effect of a mutation on the interaction” value is reported as “with no effect”.

Variants of B1 are the subject of another test. The conditions noted are these: with ccnd3_human CCND3, P30281. The source holds these as a separate data set.
In the case of R255C, the “effect of a mutation on the interaction” value is on record as “with no effect”.

Consider K22R, for which the “effect of a mutation on the interaction” value is reported as “with no effect”.

For S267P, the “effect of a mutation on the interaction” value is “with no effect”.

For the variant V174G, the “effect of a mutation on the interaction” value is “with no effect”.

Variants of B2 are the subject of another test. Conditions: with dnja3_human DNAJA3, Q96EY1.
dnja3_human DNAJA3, Q96EY1, sequence (Q96EY1 whole entry): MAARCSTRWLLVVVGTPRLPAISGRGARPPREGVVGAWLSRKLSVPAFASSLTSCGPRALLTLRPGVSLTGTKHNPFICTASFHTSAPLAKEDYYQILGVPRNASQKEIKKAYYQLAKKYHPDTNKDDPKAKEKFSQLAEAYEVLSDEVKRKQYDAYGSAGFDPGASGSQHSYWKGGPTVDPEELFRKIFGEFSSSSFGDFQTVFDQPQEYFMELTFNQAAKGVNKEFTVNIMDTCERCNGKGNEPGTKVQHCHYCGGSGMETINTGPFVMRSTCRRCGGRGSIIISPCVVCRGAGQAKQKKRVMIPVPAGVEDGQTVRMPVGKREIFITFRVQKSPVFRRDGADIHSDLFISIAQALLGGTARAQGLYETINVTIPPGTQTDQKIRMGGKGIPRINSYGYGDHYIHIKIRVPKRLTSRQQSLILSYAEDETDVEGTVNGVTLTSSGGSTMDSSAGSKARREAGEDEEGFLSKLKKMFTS
Consider A178T, for which the “effect of a mutation on the interaction” value is reported as “with no effect”.

The variants in a further test derive from B2. The conditions noted are these: with cep70_human CEP70, Q8NHQ1.
cep70_human CEP70, Q8NHQ1, sequence (Q8NHQ1 whole entry): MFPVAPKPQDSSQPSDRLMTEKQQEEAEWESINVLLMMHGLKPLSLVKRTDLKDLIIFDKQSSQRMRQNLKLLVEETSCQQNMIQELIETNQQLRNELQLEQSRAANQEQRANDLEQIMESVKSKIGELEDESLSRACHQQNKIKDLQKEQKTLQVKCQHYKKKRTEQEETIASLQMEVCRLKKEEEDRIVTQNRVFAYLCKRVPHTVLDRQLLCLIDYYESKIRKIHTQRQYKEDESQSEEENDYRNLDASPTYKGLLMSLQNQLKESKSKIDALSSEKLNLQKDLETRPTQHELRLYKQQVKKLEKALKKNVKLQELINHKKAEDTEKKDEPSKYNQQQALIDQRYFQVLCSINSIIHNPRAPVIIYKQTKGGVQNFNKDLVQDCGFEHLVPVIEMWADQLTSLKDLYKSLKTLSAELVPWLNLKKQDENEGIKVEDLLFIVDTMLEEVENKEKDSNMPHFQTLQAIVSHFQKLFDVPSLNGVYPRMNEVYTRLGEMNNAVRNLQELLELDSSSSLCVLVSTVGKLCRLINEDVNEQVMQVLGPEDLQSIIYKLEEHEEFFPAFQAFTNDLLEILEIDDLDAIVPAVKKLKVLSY
As to A178T, the “effect of a mutation on the interaction” value was “with no effect”.

Variants of B2 are the subject of the next test. Conditions: with ikzf1_human IKZF1, Q13422.
ikzf1_human IKZF1, Q13422, sequence (Q13422 whole entry): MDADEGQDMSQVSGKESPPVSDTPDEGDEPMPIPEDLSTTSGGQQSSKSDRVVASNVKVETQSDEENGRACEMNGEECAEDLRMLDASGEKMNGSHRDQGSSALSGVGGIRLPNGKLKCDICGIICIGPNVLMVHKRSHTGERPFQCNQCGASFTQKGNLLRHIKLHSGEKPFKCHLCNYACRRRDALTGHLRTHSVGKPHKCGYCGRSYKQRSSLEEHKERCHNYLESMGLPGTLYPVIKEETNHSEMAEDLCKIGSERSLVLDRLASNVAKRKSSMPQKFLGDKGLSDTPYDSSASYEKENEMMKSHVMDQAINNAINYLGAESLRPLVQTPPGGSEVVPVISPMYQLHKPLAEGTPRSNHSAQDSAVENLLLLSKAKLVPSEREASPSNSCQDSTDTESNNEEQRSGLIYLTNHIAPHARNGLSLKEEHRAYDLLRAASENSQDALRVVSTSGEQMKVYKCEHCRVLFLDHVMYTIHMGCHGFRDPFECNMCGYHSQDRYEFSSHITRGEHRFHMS
With A178T, the “effect of a mutation on the interaction” value was “with no effect”.

The variants in a further test derive from B3. Conditions: with trim1_human MID2, Q9UJV3.
trim1_human MID2, Q9UJV3, sequence (Q9UJV3 whole entry): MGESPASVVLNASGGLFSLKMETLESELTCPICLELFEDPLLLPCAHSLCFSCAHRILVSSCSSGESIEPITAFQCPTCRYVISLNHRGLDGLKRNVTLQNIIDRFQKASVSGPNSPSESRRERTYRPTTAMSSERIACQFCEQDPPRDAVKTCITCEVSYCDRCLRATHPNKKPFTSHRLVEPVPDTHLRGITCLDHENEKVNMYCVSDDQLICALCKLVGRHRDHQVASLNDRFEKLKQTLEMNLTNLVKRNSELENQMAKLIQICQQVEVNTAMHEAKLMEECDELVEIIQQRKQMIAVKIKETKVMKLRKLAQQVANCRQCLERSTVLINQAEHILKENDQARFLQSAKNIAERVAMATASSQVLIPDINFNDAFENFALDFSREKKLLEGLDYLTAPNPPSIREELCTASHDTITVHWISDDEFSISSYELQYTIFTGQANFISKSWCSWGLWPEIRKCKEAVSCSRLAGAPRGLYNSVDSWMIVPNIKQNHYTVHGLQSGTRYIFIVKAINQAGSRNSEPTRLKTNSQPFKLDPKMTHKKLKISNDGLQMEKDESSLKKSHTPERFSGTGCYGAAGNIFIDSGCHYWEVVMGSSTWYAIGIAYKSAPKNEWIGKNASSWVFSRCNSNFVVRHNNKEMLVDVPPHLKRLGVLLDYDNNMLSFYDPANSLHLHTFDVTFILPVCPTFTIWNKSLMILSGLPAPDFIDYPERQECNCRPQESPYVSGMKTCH
Regarding T796M, the “effect of a mutation on the interaction” value was “with no effect”.

The values above are taken from IntAct's records for PubMed 31515488.
